From patent publication US20250388688A1 (ETHYREAL BIO, published 2025)

What was measured:
[1] = target: T1, soluble TSHR protein (ELISA coat) (human, UniProt P16473 22-260, limits assumed); experiment: ELISA, plate coated with soluble TSHR, antibody at 100 nM, anti-human IgG Fc-HRP;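 also: binding of antibody variants to soluble TSHR coated at 2 µg/ml, with colour developed using TMB substrate and stopped with H2SO4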
Method: (§1) Select TSHR antibody variants were tested for their ability to bind TSHR in an ELISA. Briefly, soluble TSHR protein was coated onto a plate at 2 μg/ml in phosphate buffered saline (PBS). The plate was washed with PBS and blocked with 4% skim milk in PBS.
(§2) Following wash steps with 1×PBS-Tween 0.05%, bound human IgG was detected with peroxidase conjugated goat anti-human IgG (Fc specific)-HRP at 1:5000 dilution and the ELISA was developed with TMB reagent followed by H2SO4.

[2] = target: T1, soluble TSHR protein (ELISA coat); experiment: ELISA, plate coated with soluble TSHR, antibody at 300 nM, anti-human IgG Fc-HRP;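 also: TSHR coated at 2 µg/ml, bound antibody revealed by goat anti-human IgG Fc HRP, color developed with TMB and stopped with H2SO4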
Method: as §1, §2

[3] = target: T1, soluble TSHR protein (ELISA coat); experiment: ELISA, plate coated with soluble TSHR, antibody at 33.3 nM, anti-human IgG Fc-HRP;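 also: binding of antibody variants to plate-bound soluble TSHR (coated at 2 µg/ml), with bound human IgG detected by HRP conjugate and colour developed using TMB substrate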
Method: as §1, §2

[4] = target: T2, Soluble TSHR (22-260) protein (human, UniProt P16473 22-260); experiment: SPR (Biacore T200, 25 C), antibody captured on anti-human Fc, soluble TSHR (22-260) as analyte, 1:1 fit;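 also: antibodies captured at 0.1 ug/mL on a CM5 sensor chip bearing anti-human Fc, with HBS-EP+ running buffer at pH 7.4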
T2 construct: range 22-260
Method: Measurements were taken on a Biacore T200 at 25 C using a CM5 chip coated with anti-human Fc. Test antibodies were captured at 0.1 ug/mL in HBS-EP+ (10 mM HEPES pH7.4, 150 mM NaCl, 3 mM EDTA, 0.05% Tween 20) assay buffer. […] A 1:1 binding kinetics fit was used to calculate kinetic parameters.

Row | Binder | ELISA (OD 450) at 100 nM [1] [OD 450] | ELISA (OD 450) at 300 nM [2] [OD 450] | ELISA (OD 450) at 33.3 nM [3] [OD 450] | Kd [4] [nM] | koff [4] [s⁻¹] | kon [4] [M⁻¹ s⁻¹]
1 | parental TSHR-binding antibody (antibody, V domains shown, it has a human Fc (captured on anti-human Fc, detected with anti-human IgG Fc); also called parental antibody; parental anti-TSHR antibody) VH: EVQLVQSGAEVKKPGQSLKISCKASGYSLTDNWIGWVRQKPGKGLEWMGIIYPGDSDTRYSPSFQGQVTISADKSINTAYLQWSSLKASDTAIYYCVGLDWNYNPLRYWGPGTLVTVSS VL: QSVLTQPPSVSAAPGQKVTISCSGSSSDIGSNYVSWYQQFPGTAPKLLIYDNNKRPSAIPDRFSGSKSGTSATLGITGLQTGDEADYYCGTWDSRLGIAVFGGGTQLTVL | 0.43 | 0.461 | 0.406 |  |  | 
2 | TSHB-12 (antibody, V domains shown) VH: EVQLVQSGAEVKKPGASVKVSCKASGYSLTDNWIGWVRQAPGQGLEWMGIIYPGDSDTRYAQKFQGRVTMTADKSTSTVYMELSSLRSEDTAVYYCVGLDWNYNPLRYWGQGTLVTVSS VL: QSVLTQPPSVSAAPGQKVTISCSGSSSDIGSNYVSWYQQFPGTAPKLLIYDNNKRPSAIPDRFSGSKSGTSATLGITGLQTGDEADYYCGTWDSRLGIAVFGGGTQLTVL | 0.475 | 0.52 | 0.402 |  |  | 
3 | TSHB-11 (antibody, V domains shown) VH: EVQLVQSGAEVKKPGESLKISCKASGYSLTDNWIGWVRQKPGKGLEWMGIIYPGDSDTRYSPSFQGQVTISADKSISTAYLQWSSLKASDTAIYYCVGTDWNYNPLRYWGQGTLVTVSS VL: QSVLTQPPSVSAAPGQKVTISCSGSSSDIGSNYVSWYQQFPGTAPKLLIYDNNKRPSAIPDRFSGSKSGTSATLGITGLQTGDEADYYCGTWDSRLGIAVFGGGTQLTVL | 0.22 | 0.289 | 0.159 | 53.3 | 0.000643 | 12100
4 | TSHB-10 (antibody, V domains shown) VH: EVQLVQSGAEVKKPGESLKISCKASGYSLTDNWIGWVRQKPGKGLEWMGIIYPGDSDTRYSPSFKGQVTISADKSISTAYLQWSSLKASDTAIYYCVGLDWNYNPLRYWGQGTLVTVSS VL: QSVLTQPPSVSAAPGQKVTISCSGSSSDIGSNYVSWYQQFPGTAPKLLIYDNNKRPSAIPDRFSGSKSGTSATLGITGLQTGDEADYYCGTWDSRLGIAVFGGGTQLTVL | 0.496 | 0.557 | 0.44 | 2.94 | 0.000338 | 115000
5 | TSHB-13 (antibody, V domains shown) VH: EVQLVQSGAEVKKPGQSLKISCKASGYSLTDNWIGWVRQKPGKGLEWMGIIYPGDSDTRYSPSFQGQVTISADKSINTAYLQWSSLKASDTAIYYCVGLDWNYNPLRYWGPGTLVTVSS VL: QSVLTQPPSVSAAPGQKVTISCSGSSSDIGSNYVSWYQQLPGTAPKLLIYDNNKRPSGIPDRFSGSKSGTSATLGITGLQTGDEADYYCGTWDSRLGIAVFGGGTQLTVL | 0.495 | 0.561 | 0.459 |  |  | 
6 | TSHB-4 (antibody, V domains shown) VH: EVQLVQSGAEVKKPGESLKISCKASGYELTDNWIGWVRQKPGKGLEWMGIIYPGDSDTRYSPSFQGQVTISADKSISTAYLQWSSLKASDTAIYYCVGLDWNYNPLRYWGQGTLVTVSS VL: QSVLTQPPSVSAAPGQKVTISCSGSSSDIGSNYVSWYQQFPGTAPKLLIYDNNKRPSAIPDRFSGSKSGTSATLGITGLQTGDEADYYCGTWDSRLGIAVFGGGTQLTVL | 0.453 | 0.542 | 0.374 | 2.41 | 0.000362 | 150000
7 | TSHB-22 (antibody, V domains shown) VH: EVQLVQSGAEVKKPGQSLKISCKASGYSLTDNWIGWVRQKPGKGLEWMGIIYPGDSDTRYSPSFQGQVTISADKSINTAYLQWSSLKASDTAIYYCVGLDWNYNPLRYWGPGTLVTVSS VL: QSVLTQPPSVSGAPGQRVTISCSGSSSDIGSNYVSWYQQLPGTAPKLLIYDNNKRPSGVPDRFSGSKSGTSASLAITGLQAEDEADYYCGTWDSRLGIAVFGGGTKLTVL | 0.493 | 0.53 | 0.447 |  |  | 
8 | TSHB-7 (antibody, V domains shown) VH: EVQLVQSGAEVKKPGESLKISCKASGYSLKDNWIGWVRQKPGKGLEWMGIIYPGDSDTRYSPSFQGQVTISADKSISTAYLQWSSLKASDTAIYYCVGLDWNYNPLRYWGQGTLVTVSS VL: QSVLTQPPSVSAAPGQKVTISCSGSSSDIGSNYVSWYQQFPGTAPKLLIYDNNKRPSAIPDRFSGSKSGTSATLGITGLQTGDEADYYCGTWDSRLGIAVFGGGTQLTVL | 0.491 | 0.555 | 0.443 | 4.11 | 0.000477 | 116000
9 | TSHB-25 (antibody, V domains shown) VH: EVQLVQSGAEVKKPGASVKVSCKASGYSLTDNWIGWVRQAPGQGLEWMGIIYPGDSDTRYAQKFQGRVTMTADKSTSTVYMELSSLRSEDTAVYYCVGLDWNYNPLRYWGQGTLVTVSS VL: QSVLTQPPSVSGAPGQRVTISCSGSSSDIGSNYVSWYQQLPGTAPKLLIYDNNKRPSGVPDRFSGSKSGTSASLAITGLQAEDEADYYCGTWDSRLGIAVFGGGTKLTVL | 0.409 | 0.367 | 0.38 |  |  | 
10 | TSHB-14 (antibody, V domains shown) VH: EVQLVQSGAEVKKPGQSLKISCKASGYSLTDNWIGWVRQKPGKGLEWMGIIYPGDSDTRYSPSFQGQVTISADKSINTAYLQWSSLKASDTAIYYCVGLDWNYNPLRYWGPGTLVTVSS VL: QSVLTQPPSVSAAPGQKVTISCSGSSSDIGSNYVSWYQQLPGTAPKLLIYDNNKRPSGIPDRFSGSKSGTSATLGITGLQTGDEADYYCGTWDSRWGIAVFGGGTQLTVL | 0.522 | 0.572 | 0.477 | 2.52 | 0.000352 | 140000
11 | TSHB-8 (antibody, V domains shown) VH: EVQLVQSGAEVKKPGESLKISCKASGYSLTDNWIGWVRQKPGKGLEWMGIIYPGDSDTRYSPSFQGQVTISADKSISTAYLQWSSLKASDTAMYYCVGLDWNYNPLRYWGQGTLVTVSS VL: QSVLTQPPSVSAAPGQKVTISCSGSSSDIGSNYVSWYQQFPGTAPKLLIYDNNKRPSAIPDRFSGSKSGTSATLGITGLQTGDEADYYCGTWDSRLGIAVFGGGTQLTVL | 0.551 | 0.586 | 0.471 | 2.25 | 0.000344 | 153000

The remaining lines, values ahead:

Row | ELISA (OD 450) at 100 nM [1] [OD 450] | ELISA (OD 450) at 300 nM [2] [OD 450] | ELISA (OD 450) at 33.3 nM [3] [OD 450] | Kd [4] [nM] | koff [4] [s⁻¹] | kon [4] [M⁻¹ s⁻¹] | Binder
12 | 0.498 | 0.578 | 0.414 | 2.82 | 0.00044 | 156000 | TSHB-5 (antibody, V domains shown) VH: EVQLVQSGAEVKKPGESLKISCKASGYQLTDNWIGWVRQKPGKGLEWMGIIYPGDSDTRYSPSFQGQVTISADKSISTAYLQWSSLKASDTAIYYCVGLDWNYNPLRYWGQGTLVTVSS VL: QSVLTQPPSVSAAPGQKVTISCSGSSSDIGSNYVSWYQQFPGTAPKLLIYDNNKRPSAIPDRFSGSKSGTSATLGITGLQTGDEADYYCGTWDSRLGIAVFGGGTQLTVL
13 | 0.407 | 0.467 | 0.351 | 3.01 | 0.000533 | 177000 | TSHB-3 (antibody, V domains shown) VH: EVQLVQSGAEVKKPGESLKISCKASGYSLTDNWIGWVRQKPGKGLEWMGIIYPGDSDTRYSPSFQGQVTISADKSISTAYLQWSSLKASDTAIYYCVGLEWNYNPLRYWGQGTLVTVSS VL: QSVLTQPPSVSAAPGQKVTISCSGSSSDIGSNYVSWYQQFPGTAPKLLIYDNNKRPSAIPDRFSGSKSGTSATLGITGLQTGDEADYYCGTWDSRLGIAVFGGGTQLTVL
14 | 0.452 | 0.478 | 0.355 | 6.53 | 0.000676 | 104000 | TSHB-9 (antibody, V domains shown) VH: EVQLVQSGAEVKKPGESLKISCKASGYSLTDNWTGWVRQKPGKGLEWMGIIYPGDSDTRYSPSFQGQVTISADKSISTAYLQWSSLKASDTAIYYCVGLDWNYNPLRYWGQGTLVTVSS VL: QSVLTQPPSVSAAPGQKVTISCSGSSSDIGSNYVSWYQQFPGTAPKLLIYDNNKRPSAIPDRFSGSKSGTSATLGITGLQTGDEADYYCGTWDSRLGIAVFGGGTQLTVL
15 | 0.493 | 0.548 | 0.45 | 3.73 | 0.000532 | 142000 | TSHB-6 (antibody, V domains shown) VH: EVQLVQSGAEVKKPGESLKISCKASGYSLNDNWIGWVRQKPGKGLEWMGIIYPGDSDTRYSPSFQGQVTISADKSISTAYLQWSSLKASDTAIYYCVGLDWNYNPLRYWGQGTLVTVSS VL: QSVLTQPPSVSAAPGQKVTISCSGSSSDIGSNYVSWYQQFPGTAPKLLIYDNNKRPSAIPDRFSGSKSGTSATLGITGLQTGDEADYYCGTWDSRLGIAVFGGGTQLTVL
16 | 0.506 | 0.641 | 0.442 | 1.7 | 0.000273 | 161000 | TSHB-1 (antibody, V domains shown) VH: EVQLVQSGAEVKKPGESLKISCKASGYSLTDNWIGWVRQKPGKGLEWMGIIYPGDSDTRYSPSFQGQVTISADKSISTAYLQWSSLKASDTAIYYCVGLDWNYNPLRYWGQGTLVTVSS VL: QSVLTQPPSVSAAPGQKVTISCSGSSSDIGSNYVSWYQQFPGTAPKLLIYDNNKRPSAIPDRFSGSKSGTSATLGITGLQTGDEADYYCGTWDSRLGIAVFGGGTQLTVL
